Measured values published in US20090280138A1 (OXFORD BIOMEDICA UK, published 2009).
Read-outs that look alike come from different tables or passages of the source.

Tests used:
[1] = biological target: T1, MHC class I molecule HLA-A*0201 (iTopia plate-bound monomer) (biotin (bound to streptavidin-coated plate)); assay: iTopia off-rate assay, 37 C; fit R^2 0.85
T1 construct: also called A2
Description: (§1) The 9 mers were tested for Peptide Binding, Off Rate and Affinity using iTopia Epitope Discovery System in accordance with the manufacturer's instructions. Briefly, 96 well microtitre plates coated with MHC molecules representing different MHC alleles are used to identify candidate peptides. […] Determinations are performed in duplicate using an ELISA plate reader and included allele specific positive controls.
(§2) A one-phase exponential decay curve, with a plateau given equal to 0, was generated using GraphPad Prism® software, which calculated the t1/2 and goodness-of-fit, as measured by r², for each peptide.

[2] = biological target: T2, MHC class I molecule A*0201 (biotin (bound via biotin to streptavidin-coated plates)); assay: iTopia affinity assay (ED50), peptide titration on plate-bound MHC
T2 construct: also called A2; HLA-A2
Description: as §1
(§3) Dose-response curves of peptide binding to MHC were prepared by peptide titration to determine the ED50 measurement for each peptide. Values for the concentrations tested (in duplicate) were obtained as a percentage of the highest (9000×) concentration of the positive control peptide. A dose-response curve was generated using GraphPad Prism® curve fitting software, which automatically calculated the ED50 (in Molarity) for each peptide.

[3] = biological target: T3, MHC class I molecule A*0301 (biotin (bound via biotin to streptavidin-coated plates)); assay: as above
T3 construct: also called A3; HLA-A3
Description: as §1, §3

[4] = biological target: T4, MHC class I molecule A*0101 (biotin (bound via biotin to streptavidin-coated plates)); assay: as above
T4 construct: also called A1; HLA-A1
Description: as §1, §3

[5] = biological target: T5, MHC class I molecule B*0702 (biotin (bound via biotin to streptavidin-coated plates)); assay: as above
T5 construct: Methods name B*0702 as the allele used; also called B7; HLA-B7
Description: as §1, §3

[6] = biological target: T6, MHC class I allele A*0201 monomer (human, biotinylated, bound to streptavidin-coated plate); assay: iTopia, multiparametric iScore
T6 construct: also called A2; HLA-A2
Description: as §1
(§4) Finally, multiparametric analysis is performed on the results from these assays and an iScore is generated. The iScore represents a measure of the overall quality of peptide-MHC binding, enabling candidate peptides to be ranked in order of binding quality and allowing rational prioritisation of peptides for functional cellular follow-up studies.

[7] = biological target: T7, MHC class I allele B*0702 monomer (human, biotinylated, bound to streptavidin-coated plate); assay: iTopia, multiparametric iScore
T7 construct: also called B7; HLA-B7
Description: as §1, §4

[8] = biological target: T8, MHC class I allele A*0301 monomer (human, biotinylated, bound to streptavidin-coated plate); assay: iTopia, multiparametric iScore
T8 construct: also called A3; HLA-A3
Description: as §1, §4

[9] = biological target: T9, MHC class I allele A*0101 monomer (human, biotinylated, bound to streptavidin-coated plate); assay: iTopia, multiparametric iScore
T9 construct: placeholder peptide and b2M removed, then reconstituted with test peptide and fresh b2M; also called A1; HLA-A1
Description: as §1, §4

[10] = biological target: T6, MHC class I allele A*0201 monomer; assay: iTopia, multiparametric iScore; remark: listed apart in the source
Method in brief: (§5)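 9-mer peptides were tested on plates coated with MHC molecules, measuring binding, off-rate and affinity by ELISA in duplicate with allele-specific positive controls.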

[11] = biological target: T7, MHC class I allele B*0702 monomer; assay: iTopia, multiparametric iScore; remark: listed apart in the source
Method in brief: as §5

[12] = biological target: T8, MHC class I allele A*0301 monomer; assay: iTopia, multiparametric iScore; remark: listed apart in the source
Method in brief: as §5

[13] = biological target: T9, MHC class I allele A*0101 monomer; assay: iTopia, multiparametric iScore; remark: listed apart in the source
Method in brief: as §5

[14] = biological target: T1, MHC class I molecule HLA-A*0201 (iTopia …); assay: iTopia off-rate assay, 37 C; fit R^2 0.94
Description: as §1, §2

[15] = biological target: T1, MHC class I molecule HLA-A*0201 (iTopia …); assay: iTopia off-rate assay, 37 C; fit R^2 0.97
Description: as §1, §2

[16] = biological target: T1, MHC class I molecule HLA-A*0201 (iTopia …); assay: iTopia off-rate assay, 37 C; fit R^2 0.91
Description: as §1, §2

[17] = biological target: T1, MHC class I molecule HLA-A*0201 (iTopia …); assay: iTopia off-rate assay, 37 C; fit R^2 0.98
Description: as §1, §2

[18] = biological target: T1, MHC class I molecule HLA-A*0201 (iTopia …); assay: iTopia off-rate assay, 37 C; fit R^2 0.89
Description: as §1, §2

[19] = biological target: T1, MHC class I molecule HLA-A*0201 (iTopia …); assay: iTopia off-rate assay, 37 C; fit R^2 0.77
Description: as §1, §2

[20] = biological target: T1, MHC class I molecule HLA-A*0201 (iTopia …); assay: iTopia off-rate assay, 37 C; fit R^2 0.81
Description: as §1, §2

[21] = biological target: T1, MHC class I molecule HLA-A*0201 (iTopia …); assay: iTopia off-rate assay, 37 C; fit R^2 0.84
Description: as §1, §2

[22] = biological target: T1, MHC class I molecule HLA-A*0201 (iTopia …); assay: iTopia off-rate assay, 37 C; fit R^2 0.95
Description: as §1, §2

[23] = biological target: T1, MHC class I molecule HLA-A*0201 (iTopia …); assay: iTopia off-rate assay, 37 C; fit R^2 0.63
Description: as §1, §2

[24] = biological target: T1, MHC class I molecule HLA-A*0201 (iTopia …); assay: iTopia off-rate assay, 37 C; fit R^2 0.87
Description: as §1, §2

[25] = biological target: T1, MHC class I molecule HLA-A*0201 (iTopia …); assay: iTopia off-rate assay, 37 C; fit R^2 0.9
Description: as §1, §2

KWMHNIRDA (also called Peptide No 192) [5T4 9-mer peptide 192 KWMHNIRDA]
t½ half life [1]: 1.4 h

LTYVSFRNL [5T4 9 mer peptide 125 (LTYVSFRNL)]
EC50 [2]: 400 nM | EC50 [3]: 3000 nM | EC50 [4]: 3000 nM | EC50 [5]: 3000 nM

LTYVSFRNL [5T4 9-mer peptide 125]
iScore [6]: 1.11 | iScore [7]: 0.574 | iScore [8]: 0.157 | iScore [9]: 0.522 | iScore [10]: 1.11 | iScore [11]: 0.574 | iScore [12]: 0.157 | iScore [13]: 0.522

GLPHIRVFL [5T4 9-mer peptide 142]
iScore [6]: 1.39 | iScore [8]: 0.319 | iScore [10]: 1.89 | iScore [11]: 0.075 | iScore [12]: 0.319 | iScore [13]: 0

LTCAYPEKM [5T4 9-mer peptide 161]
iScore [9]: 0.139 | iScore [10]: 0.158 | iScore [11]: 0 | iScore [12]: 0 | iScore [13]: 0.139

LLVLYLNRK [5T4 9-mer peptide 186]
iScore [6]: 0.386 | iScore [8]: 0.375 | iScore [10]: 0.386 | iScore [12]: 0.372 | iScore [13]: 0

HMEGYHYRY [5T4 9-mer peptide 198]
iScore [8]: 0.189 | iScore [9]: 0.357 | iScore [10]: 0.24 | iScore [11]: 0 | iScore [12]: 0.189 | iScore [13]: 0.357

LASNHFLYL [5T4 9-mer peptide 109]
iScore [6]: 0.337 | iScore [8]: 0.224 | iScore [9]: 0.12

VPTDLPAYV [5T4 9-mer peptide 43]
iScore [9]: 0.098

VVAALLAGR [5T4 9-mer peptide 100]
iScore [8]: 0.125

AGDGRLRLA (also called Peptide No 6) [5T4 9-mer peptide 6 AGDGRLRLA]
t½ half life [14]: 0.1 h

GWVSSSSPT (also called Peptide No 14) [5T4 9-mer peptide 14 GWVSSSSPT]
t½ half life [14]: 1 h

TSSASSFSS (also called Peptide No 18) [5T4 9-mer peptide 18 TSSASSFSS]
t½ half life [15]: 0.7 h

SASSFSSSA (also called Peptide No 19) [5T4 9-mer peptide 19 SASSFSSSA]
t½ half life [16]: 0.2 h

SSAPFLASA (also called Peptide No 22) [5T4 9-mer peptide 22 SSAPFLASA]
t½ half life [17]: 1.3 h

FLASAVSAQ (also called Peptide No 24) [5T4 9-mer peptide 24 FLASAVSAQ]
t½ half life [15]: 0.7 h

AVSAQPPLP (also called Peptide No 26) [5T4 9-mer peptide 26 AVSAQPPLP]
t½ half life [18]: 1.7 h

PLPDQCPAL (also called Peptide No 29) [5T4 9-mer peptide 29 PLPDQCPAL]
t½ half life [19]: 2.8 h

PALCECSEA (also called Peptide No 32) [5T4 9-mer peptide 32 PALCECSEA]
t½ half life [20]: 2.2 h

NLTEVPTDL (also called Peptide No 41) [5T4 9-mer peptide 41 NLTEVPTDL]
t½ half life [17]: 1.4 h

AYVRNLFLT (also called Peptide No 46) [5T4 9-mer peptide 46 AYVRNLFLT]
t½ half life [19]: 6.8 h

NLFLTGNQL (also called Peptide No 48) [5T4 9-mer peptide 48 NLFLTGNQL]
t½ half life [17]: 0.5 h

FARRPPLAE (also called Peptide No 56) [5T4 9-mer peptide 56 FARRPPLAE]
t½ half life [14]: 0.3 h

GSRLDEVRA (also called Peptide No 64) [5T4 9-mer peptide 64 GSRLDEVRA]
t½ half life [14]: 1.9 h

EHLPSLRQL (also called Peptide No 70) [5T4 9-mer peptide 70 EHLPSLRQL]
t½ half life [21]: 1.4 h

B1: 5T4 9-mer peptide 78 ADLSPFAFS (peptide)
peptide: ADLSPFAFS
notes: it stands between 77 and 79; also called Peptide No 78
t½ half life [16]: 2.6 h

LSPFAFSGS (also called Peptide No 79) [5T4 9-mer peptide 79 LSPFAFSGS]
t½ half life [1]: 0.4 h

AFSGSNASV (also called Peptide No 81) [5T4 9-mer peptide 81 AFSGSNASV]
t½ half life [22]: 0.7 h

SPLVELILN (also called Peptide No 87) [5T4 9-mer peptide 87 SPLVELILN]
t½ half life [23]: 2.4 h

LVELILNHI (also called Peptide No 88) [5T4 9-mer peptide 88 LVELILNHI]
t½ half life [21]: 0.3 h

QNRSFEGMV (also called Peptide No 96) [5T4 9-mer peptide 96 QNRSFEGMV]
t½ half life [24]: 2.4 h

LLAGRALQG (also called Peptide No 102) [5T4 9-mer peptide 102 LLAGRALQG]
t½ half life [25]: 1.4 h

LELASNHFL [5T4 9-mer peptide 108 LELASNHFL]
t½ half life [22]: 1.4 h

AQLPSLRHL [5T4 9-mer peptide 116 AQLPSLRHL]
t½ half life [22]: 0.7 h

TLAELQGLP [5T4 9-mer peptide 139 TLAELQGLP]
t½ half life [18]: 0.7 h

LQGLPHIRV (also called Peptide No 141) [5T4 9-mer peptide 141 LQGLPHIRV]
t½ half life [24]: 1.1 h

VCDCHMADM (also called Peptide No 149) [5T4 9-mer peptide 149 VCDCHMADM]
t½ half life [1]: 1.4 h

HMADMVTWL [5T4 9-mer peptide 151 HMADMVTWL]
t½ half life [21]: 7.9 h

NRVLLELNS (also called Peptide No 166) [5T4 9-mer peptide 166 NRVLLELNS]
t½ half life [23]: 1.3 h

VLLELNSAD (also called Peptide No 167) [5T4 9-mer peptide 167 VLLELNSAD]
t½ half life [20]: 0.8 h
